For 15 molecules, Ki results are on record in publication PMC1277809.

Holding throughout (test): competition EMSA
Data set [1] concerns the target T1, LexA (DinR) wild type (Bacillus subtilis, UniProt P31080 1-205).
T1 sequence: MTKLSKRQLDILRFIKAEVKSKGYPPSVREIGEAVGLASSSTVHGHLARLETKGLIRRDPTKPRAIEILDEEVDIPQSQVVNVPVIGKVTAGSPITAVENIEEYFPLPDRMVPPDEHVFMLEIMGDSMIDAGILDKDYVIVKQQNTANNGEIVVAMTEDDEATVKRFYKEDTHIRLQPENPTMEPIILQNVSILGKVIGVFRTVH

For data set [2], the target named is T1, LexA (DinR) wild type. This is another data set of the same source.
Data set [3] addresses T1, LexA (DinR) wild type. The source holds these as a separate data set.
Data set [4] addresses T1, LexA (DinR) wild type. This is another data set of the same source.
Data set [5] has as its target T1, LexA (DinR) wild type. The source holds these as a separate data set.
Data set [6] has as its target T1, LexA (DinR) wild type. The source holds these as a separate data set.
The target in data set [7] is T1, LexA (DinR) wild type. The source holds these as a separate data set.
For data set [8], the target named is T1, LexA (DinR) wild type. The source holds these as a separate data set.
Data set [9] deals with T1, LexA (DinR) wild type. This is another data set of the same source.
Data set [10] deals with T1, LexA (DinR) wild type. The source holds these as a separate data set.
The target of data set [11] is T1, LexA (DinR) wild type. The source holds these as a separate data set.
The target of data set [12] is T1, LexA (DinR) wild type. This is another data set of the same source.
The target of data set [13] is T1, LexA (DinR) wild type. This is another data set of the same source.
Data set [14] deals with T1, LexA (DinR) wild type. The source holds these as a separate data set.
Data set [15] concerns the target T1, LexA (DinR) wild type. This is another data set of the same source.

Like-named read-outs stand apart in the source and are kept apart here.

B1: recA op A6C (dsDNA)
DNA 1: GGGGGGCGAATCTGCGTTCGCCCCCC
DNA 2: GGGGGGCGAACGCAGATTCGCCCCCC
Turning to B1, the Ki in the data set with LexA (DinR) wild type [1] is 20 nM. This lies in the double-digit nanomolar range.

B2: recA op T5C (dsDNA)
DNA 1: GGGGGGCGAACATGCGTTCGCCCCCC
DNA 2: GGGGGGCGAACGCATGTTCGCCCCCC
In the data set with LexA (DinR) wild type [2], B2 returned a Ki of 0.22 nM.

B3: recA op C1A,T5C (dsDNA)
DNA 1: GGGGGGAGAACATGCGTTCGCCCCCC
DNA 2: GGGGGGCGAACGCATGTTCTCCCCCC
B3 returned an inhibition constant Ki with LexA (DinR) wild type [3] of 0.42 nM. This lies in the sub-nanomolar range.

B4: recA op G2A,T5C (dsDNA)
DNA 1: GGGGGGCAAACATGCGTTCGCCCCCC
DNA 2: GGGGGGCGAACGCATGTTTGCCCCCC
In the case of B4, the Ki with LexA (DinR) wild type [4] stood at 5.2 nM.

B5: recA op C1A (dsDNA)
DNA 1: GGGGGGAGAATATGCGTTCGCCCCCC
DNA 2: GGGGGGCGAACGCATATTCTCCCCCC
In turn, B5 yielded a Ki with LexA (DinR) wild type [5] of 11.4 nM. This counts as double-digit nanomolar.

B6: recA op A6T (dsDNA)
DNA 1: GGGGGGCGAATTTGCGTTCGCCCCCC
DNA 2: GGGGGGCGAACGCAAATTCGCCCCCC
B6 displayed an inhibition constant Ki with LexA (DinR) wild type [6] of 11.5 nM.

B7: recA op A6G (dsDNA)
DNA 1: GGGGGGCGAATGTGCGTTCGCCCCCC
DNA 2: GGGGGGCGAACGCACATTCGCCCCCC
B7 gave a Ki with LexA (DinR) wild type [7] of 6.4 nM.

B8: recA op T7A (dsDNA)
DNA 1: GGGGGGCGAATAAGCGTTCGCCCCCC
DNA 2: GGGGGGCGAACGCTTATTCGCCCCCC
For B8, the Ki in the data set with LexA (DinR) wild type [8] amounted to 17.1 nM.

B9: recA op C1G,T5C (dsDNA)
DNA 1: GGGGGGGGAACATGCGTTCGCCCCCC
DNA 2: GGGGGGCGAACGCATGTTCCCCCCCC
The molecule B9 yielded an inhibition constant (Ki) with LexA (DinR) wild type [9] of 1 nM.

B10: recA op T5C,A6C (dsDNA)
DNA 1: GGGGGGCGAACCTGCGTTCGCCCCCC
DNA 2: GGGGGGCGAACGCAGGTTCGCCCCCC
Regarding B10, the Ki with LexA (DinR) wild type [10] came to 0.56 nM.

B11: recA op C1G (dsDNA)
DNA 1: GGGGGGGGAATATGCGTTCGCCCCCC
DNA 2: GGGGGGCGAACGCATATTCCCCCCCC
As to B11, the Ki with LexA (DinR) wild type [11] was determined as 53 nM.

B12: recA op T5C,G8A,C9T (preferred) (dsDNA)
DNA 1: GGGGGGCGAACATATGTTCGCCCCCC
DNA 2: GGGGGGCGAACATATGTTCGCCCCCC
Turning to B12, the inhibitory constant (Ki) with LexA (DinR) wild type [12] was determined as 0.17 nM.

B13: recA op T5C,A6T (dsDNA)
DNA 1: GGGGGGCGAACTTGCGTTCGCCCCCC
DNA 2: GGGGGGCGAACGCAAGTTCGCCCCCC
With B13, in the data set with LexA (DinR) wild type [13], the Ki was 0.49 nM.

B14: recA op T7C (dsDNA)
DNA 1: GGGGGGCGAATACGCGTTCGCCCCCC
DNA 2: GGGGGGCGAACGCGTATTCGCCCCCC
Take B14: the Ki in the data set with LexA (DinR) wild type [14] came to 7.8 nM.

B15: recA op T5C,T7A (dsDNA)
DNA 1: GGGGGGCGAACAAGCGTTCGCCCCCC
DNA 2: GGGGGGCGAACGCTTGTTCGCCCCCC
On to B15, for which, in the data set with LexA (DinR) wild type [15], the Ki was determined as 0.62 nM.
